{"source": "patent US20240124576A1", "about": "(SHANGHAI JEMINCARE PHARMACEUTICAL, published 2024)", "key": {"[1]": {"target": "T1, full length murine Siglec-15 on murine S15-CT26 cells (murine)", "T1 construct": "whole, on cells; also called murine Siglec-15 on the surface of a cell", "experiment": "flow cytometry on murine S15-CT26 cells, Alexa 488 secondary antibody"}, "[2]": {"target": "T2, extracellular domain of monkey Siglec-15 on monkey S15ECD-293T cells (monkey)", "T2 chain": "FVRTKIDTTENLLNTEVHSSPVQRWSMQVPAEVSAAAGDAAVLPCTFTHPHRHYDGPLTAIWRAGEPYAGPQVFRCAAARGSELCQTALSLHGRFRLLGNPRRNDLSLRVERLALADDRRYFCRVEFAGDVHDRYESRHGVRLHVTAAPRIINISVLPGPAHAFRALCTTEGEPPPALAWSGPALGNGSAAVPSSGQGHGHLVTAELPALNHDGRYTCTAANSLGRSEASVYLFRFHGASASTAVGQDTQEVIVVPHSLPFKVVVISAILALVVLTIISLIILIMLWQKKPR", "experiment": "flow cytometry on monkey S15ECD-293T cells, Alexa 488 secondary antibody"}, "[3]": {"target": "T3, human Siglec-15 (Acro, Cat. No. SG5-H52H3) (human, UniProt Q6ZMC9 20-263)", "T3 construct": "Bought reagent used as the analyte in the Octet assay; also called antigen", "T3 sequence (looked up)": "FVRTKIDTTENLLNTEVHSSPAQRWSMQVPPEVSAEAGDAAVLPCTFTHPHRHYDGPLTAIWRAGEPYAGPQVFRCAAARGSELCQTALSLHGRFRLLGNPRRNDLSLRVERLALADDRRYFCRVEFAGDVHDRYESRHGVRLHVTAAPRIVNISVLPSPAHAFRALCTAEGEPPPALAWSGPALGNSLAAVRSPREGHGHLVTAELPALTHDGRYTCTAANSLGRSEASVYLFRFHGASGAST", "experiment": "BLI (Octet RED96e), antibody captured on AHC sensor, 30 nM antigen, 1:1 fit; second assay", "design": "Response value: unit not given here", "protocol": "(§1) Affinity of Siglec-15 binding protein of the present application to human Siglec-15 (Acro, Cat. No.: SG5-H52H3) was determined using Octet RED96e (Fortebio), both of the antigen and the Siglec-15 binding protein of the present application were diluted with 1×PBST (1×PBS: Sangon, B548117-0500; 0.02% Tween 20: Sigma-aldrich, P1379). The antigen is used at a concentration of 30 nM and the Siglec-15 binding protein of the present application is used at a concentration of 33.3 nM.\n(§2) First, a sample was added to a 96-well plate (Greiner bio-one, 655209) in a system of 200 μL/well. Software parameters were then set, the plate temperature was set to 30° C., and the frequency at which the standard kinetic signal was collected was 5.0 Hz. Next, the AHC sensor (Fortébio, Cat. No.: 18-0015) was pre-wetted with 1×PBST for 10 min, then the sample was loaded on the machine for detection, with each cycle containing the following steps: 1) immersing the sample in buffer for 60 s; 2) detecting whether the antigen has non-specific binding to the sensor; 3) regenerating in a 10 mM glycine solution at pH 1.7; 4) immersing in buffer for 60 s; 5) immobilizing the Siglec-15 binding protein of the present application on the sensor for 20 s; 6) immersing the sensor in buffer for 180 s; 7) binding the antigen to the Siglec-15 binding protein of the present application for 180 s; 8) dissociating the antigen with Siglec-15 binding protein of the present application for 10 min; and 9) regenerating the sensor.\n(§3) The equilibrium dissociation constant (KD) of the Siglec-15 binding protein of the present application was calculated by determining the binding rate constant (kon) and dissociation rate constant (kdis) of the antigen-Siglec-15 binding protein of the present application in a 1:1 binding manner using Data Analysis 12.0 software fromx Fortebio."}, "[4]": {"target": "T4, extracellular domain of human Siglec-15 with PDGFR transmembrane domain on human S15ECD-293T cells (human, UniProt Q6ZMC9 20-263; P09619 513-561)", "T4 construct": "range 20-263;range 513-561; also called human Siglec-15 on the surface of a cell", "experiment": "flow cytometry on human S15ECD-293T cells, Alexa 488 secondary antibody; Ab15 on human S15ECD-293T cells", "text": "The purified Siglec-15 binding protein of the present application was identified by flow cytometry for its function to bind to human S15ECD-293T cells of the present application. Human S15ECD-293T cells prepared by the methods of the present application can be expanded to 90% confluence in 15 cm cell culture dishes, media were pipetted completely, the cells were washed once with PBS buffer (Thermo Fisher, 10010049), then treated with enzyme-free cell dissociation buffer (Versene solution, Thermo Fisher, 15040066) and harvested. The cells were washed twice with PBS buffer and counted, the desired quantity of cells was removed for centrifugation, the cells were resuspended to 2×10^6 cells/ml with FACS buffer (PBS with 2% FBS). After incubation at room temperature for 15 min, the cell suspension was added to a U-shaped 96-well plate (Corning, 3798) at 50 μL/well. The Siglec-15 binding proteins of the present application were serially diluted in FACS buffer, the dilution was added to the above 96-well plate at 50 μL/well and incubated at 4° C. for 1 h. […] The cells were resuspended in 30 μL/well FACS buffer, and detected and analyzed by flow cytometry intellycite plus (Sartorius). […]"}, "[5]": {"target": "T3, human Siglec-15 (Acro, Cat. No. …)", "experiment": "BLI (Octet RED96e), antibody captured on AHC sensor, 30 nM antigen, 1:1 fit; third assay", "protocol": "as §1, §2, §3"}}, "data": [{"binder": "Ab15, purified Siglec-15 binding protein in the form of IgG1 (antibody, V domains shown, Expressed in ExpiCHO cells in the form of IgG1) VH: EVQLLESGGGLVQPGGSLRLSCAASGFTFSSYAMSWVRQAPGKGLEWVSTITGGGESTYYADSVKGRFTISRDNSKNTLYLQMNSLRAEDTAVYYCAKAIGSSWYSDAFDLWGQGTMVTVSS VL: DIQMTQSPSSVSASVGDRVTITCRASQDISSWLAWYQQKPGKAPKLLIYVASYIHSGVPSRFSGSGSGTDFTLTISSLQPEDFATYYCQQSYSIPYTFGQGTKLEIKR", "values": [{"measurement": "EC50", "setting": "[1]", "result": 1.83, "unit": "nM"}, {"measurement": "EC50", "setting": "[2]", "result": 0.475, "unit": "nM"}, {"measurement": "Kd", "setting": "[3]", "result": 0.073, "unit": "nM"}, {"measurement": "Response value", "setting": "[3]", "result": 0.361}, {"measurement": "koff", "setting": "[3]", "result": "3.93e-05", "unit": "s⁻¹"}, {"measurement": "kon", "setting": "[3]", "result": 538000, "unit": "M⁻¹ s⁻¹"}, {"measurement": "EC50", "setting": "[4]", "result": 0.475, "unit": "nM"}, {"measurement": "Kd", "setting": "[5]", "result": 0.0916, "unit": "nM"}, {"measurement": "koff", "setting": "[5]", "result": "4.35e-05", "unit": "s⁻¹"}, {"measurement": "kon", "setting": "[5]", "result": 475000, "unit": "M⁻¹ s⁻¹"}]}]}
